This series relates to ArdK (intact) (Escherichia coli A56-1S (plasmid pA56-1S)). Nature of the series: BLI. To be noted: EMSA: 20 mM Tris pH 7.5, 100 mM KCl, 2 mM DTT, 10 mM EDTA, 50 mg/L poly(dI-dC), 20 C, 20 min, 3 fmol probe, 30 pmol protein; BLI: 1x kinetics buffer (Pall …). On the technique in general: Mobility shift assays separate free from complexed probe on a gel.

As to 107 bp probe upstream of blaIMP-6, the Kd came to 29.3 nM.

What is called Kd is the equilibrium constant for the complex coming apart. Low readings indicate tighter binding, high ones weaker binding.

The values above are taken from PMC6289460.
